Laboratory results as given in patent US20190233495A1 (Sanofi, published 2019).
Non-standard residues stand in square brackets, D forms with d. αMeK = C[C@](N)(CCCCN)C(=O)O; Nle = CCCC[C@H](N)C(=O)O; Aib = CC(C)(N)C(=O)O

T1: RXFP1 receptor (UniProt Q9HBX9 1-757, limits assumed)
T1 sequence (looked up): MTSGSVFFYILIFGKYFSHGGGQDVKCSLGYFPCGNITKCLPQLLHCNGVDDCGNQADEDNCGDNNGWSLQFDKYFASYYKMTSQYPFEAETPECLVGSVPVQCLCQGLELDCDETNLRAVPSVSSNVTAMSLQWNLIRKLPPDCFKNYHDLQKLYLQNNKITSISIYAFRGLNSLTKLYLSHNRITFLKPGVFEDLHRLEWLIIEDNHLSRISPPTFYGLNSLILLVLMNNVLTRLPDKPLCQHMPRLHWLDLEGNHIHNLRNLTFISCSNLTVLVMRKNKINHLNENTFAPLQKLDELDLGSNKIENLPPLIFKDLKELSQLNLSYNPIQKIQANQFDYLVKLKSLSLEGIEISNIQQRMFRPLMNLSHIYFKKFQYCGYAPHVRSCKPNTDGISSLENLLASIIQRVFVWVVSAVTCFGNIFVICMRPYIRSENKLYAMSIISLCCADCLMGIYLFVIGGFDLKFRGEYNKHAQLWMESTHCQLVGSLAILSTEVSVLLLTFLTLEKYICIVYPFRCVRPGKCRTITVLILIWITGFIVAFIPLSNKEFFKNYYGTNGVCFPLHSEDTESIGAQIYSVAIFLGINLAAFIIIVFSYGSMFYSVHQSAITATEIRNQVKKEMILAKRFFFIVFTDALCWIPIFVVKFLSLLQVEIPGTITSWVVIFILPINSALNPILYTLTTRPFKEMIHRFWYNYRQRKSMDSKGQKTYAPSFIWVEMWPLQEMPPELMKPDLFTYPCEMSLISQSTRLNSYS

B1: SEQ ID NO: 23 (peptide)
peptide: Ac-LEGREKVRAQI[Aib][Aib]EG[Nle]STWT[Aib]RKK-NH2
SMILES: CCCC[C@H](NC(=O)CNC(=O)[C@H](CCC(=O)O)NC(=O)C(C)(C)NC(=O)C(C)(C)NC(=O)[C@@H](NC(=O)[C@H](CCC(N)=O)NC(=O)[C@H](C)NC(=O)[C@H](CCCNC(=N)N)NC(=O)[C@@H](NC(=O)[C@H](CCCCN)NC(=O)[C@H](CCC(=O)O)NC(=O)[C@H](CCCNC(=N)N)NC(=O)CNC(=O)[C@H](CCC(=O)O)NC(=O)[C@H](CC(C)C)NC(C)=O)C(C)C)[C@@H](C)CC)C(=O)N[C@@H](CO)C(=O)N[C@H](C(=O)N[C@@H](Cc1c[nH]c2ccccc12)C(=O)N[C@H](C(=O)NC(C)(C)C(=O)N[C@@H](CCCNC(=N)N)C(=O)N[C@@H](CCCCN)C(=O)N[C@@H](CCCCN)C(N)=O)[C@@H](C)O)[C@@H](C)O
B2: SEQ ID NO: 22 (peptide)
peptide: Ac-LEGREKVRAQI[Aib][Aib]EG[Nle]STWA[Aib]RKK-NH2
SMILES: CCCC[C@H](NC(=O)CNC(=O)[C@H](CCC(=O)O)NC(=O)C(C)(C)NC(=O)C(C)(C)NC(=O)[C@@H](NC(=O)[C@H](CCC(N)=O)NC(=O)[C@H](C)NC(=O)[C@H](CCCNC(=N)N)NC(=O)[C@@H](NC(=O)[C@H](CCCCN)NC(=O)[C@H](CCC(=O)O)NC(=O)[C@H](CCCNC(=N)N)NC(=O)CNC(=O)[C@H](CCC(=O)O)NC(=O)[C@H](CC(C)C)NC(C)=O)C(C)C)[C@@H](C)CC)C(=O)N[C@@H](CO)C(=O)N[C@H](C(=O)N[C@@H](Cc1c[nH]c2ccccc12)C(=O)N[C@@H](C)C(=O)NC(C)(C)C(=O)N[C@@H](CCCNC(=N)N)C(=O)N[C@@H](CCCCN)C(=O)N[C@@H](CCCCN)C(N)=O)[C@@H](C)O
B3: SEQ ID NO: 26 (peptide)
peptide: Ac-LEGREKVRAK(Ac)I[Aib][Aib]EG[Nle]STWSK(Ac)RKKK(Ac)-NH2
SMILES: CCCC[C@H](NC(=O)CNC(=O)[C@H](CCC(=O)O)NC(=O)C(C)(C)NC(=O)C(C)(C)NC(=O)[C@@H](NC(=O)[C@H](CCCCNC(C)=O)NC(=O)[C@H](C)NC(=O)[C@H](CCCNC(=N)N)NC(=O)[C@@H](NC(=O)[C@H](CCCCN)NC(=O)[C@H](CCC(=O)O)NC(=O)[C@H](CCCNC(=N)N)NC(=O)CNC(=O)[C@H](CCC(=O)O)NC(=O)[C@H](CC(C)C)NC(C)=O)C(C)C)[C@@H](C)CC)C(=O)N[C@@H](CO)C(=O)N[C@H](C(=O)N[C@@H](Cc1c[nH]c2ccccc12)C(=O)N[C@@H](CO)C(=O)N[C@@H](CCCCNC(C)=O)C(=O)N[C@@H](CCCNC(=N)N)C(=O)N[C@@H](CCCCN)C(=O)N[C@@H](CCCCN)C(=O)N[C@@H](CCCCNC(C)=O)C(N)=O)[C@@H](C)O
B4: SEQ ID NO: 27 (peptide)
peptide: Ac-LEGREKVRAK(Ac)I[Aib][Aib]EG[Nle]STWS[Aib]RKK(Ac)K-NH2
SMILES: CCCC[C@H](NC(=O)CNC(=O)[C@H](CCC(=O)O)NC(=O)C(C)(C)NC(=O)C(C)(C)NC(=O)[C@@H](NC(=O)[C@H](CCCCNC(C)=O)NC(=O)[C@H](C)NC(=O)[C@H](CCCNC(=N)N)NC(=O)[C@@H](NC(=O)[C@H](CCCCN)NC(=O)[C@H](CCC(=O)O)NC(=O)[C@H](CCCNC(=N)N)NC(=O)CNC(=O)[C@H](CCC(=O)O)NC(=O)[C@H](CC(C)C)NC(C)=O)C(C)C)[C@@H](C)CC)C(=O)N[C@@H](CO)C(=O)N[C@H](C(=O)N[C@@H](Cc1c[nH]c2ccccc12)C(=O)N[C@@H](CO)C(=O)NC(C)(C)C(=O)N[C@@H](CCCNC(=N)N)C(=O)N[C@@H](CCCCN)C(=O)N[C@@H](CCCCNC(C)=O)C(=O)N[C@@H](CCCCN)C(N)=O)[C@@H](C)O
B5: SEQ ID NO: 20 (peptide)
peptide: Ac-LEGREKVRA[Aib]I[Aib][Aib]EG[Nle]STWS[αMeK]RKK-NH2
SMILES: CCCC[C@H](NC(=O)CNC(=O)[C@H](CCC(=O)O)NC(=O)C(C)(C)NC(=O)C(C)(C)NC(=O)[C@@H](NC(=O)C(C)(C)NC(=O)[C@H](C)NC(=O)[C@H](CCCNC(=N)N)NC(=O)[C@@H](NC(=O)[C@H](CCCCN)NC(=O)[C@H](CCC(=O)O)NC(=O)[C@H](CCCNC(=N)N)NC(=O)CNC(=O)[C@H](CCC(=O)O)NC(=O)[C@H](CC(C)C)NC(C)=O)C(C)C)[C@@H](C)CC)C(=O)N[C@@H](CO)C(=O)N[C@H](C(=O)N[C@@H](Cc1c[nH]c2ccccc12)C(=O)N[C@@H](CO)C(=O)N[C@@](C)(CCCCN)C(=O)N[C@@H](CCCNC(=N)N)C(=O)N[C@@H](CCCCN)C(=O)N[C@@H](CCCCN)C(N)=O)[C@@H](C)O
B6: SEQ ID NO: 25 (peptide)
peptide: Ac-LEGREKVRAK(Ac)I[Aib][Aib]EG[Nle]STWSK(Ac)RKKK-NH2
SMILES: CCCC[C@H](NC(=O)CNC(=O)[C@H](CCC(=O)O)NC(=O)C(C)(C)NC(=O)C(C)(C)NC(=O)[C@@H](NC(=O)[C@H](CCCCNC(C)=O)NC(=O)[C@H](C)NC(=O)[C@H](CCCNC(=N)N)NC(=O)[C@@H](NC(=O)[C@H](CCCCN)NC(=O)[C@H](CCC(=O)O)NC(=O)[C@H](CCCNC(=N)N)NC(=O)CNC(=O)[C@H](CCC(=O)O)NC(=O)[C@H](CC(C)C)NC(C)=O)C(C)C)[C@@H](C)CC)C(=O)N[C@@H](CO)C(=O)N[C@H](C(=O)N[C@@H](Cc1c[nH]c2ccccc12)C(=O)N[C@@H](CO)C(=O)N[C@@H](CCCCNC(C)=O)C(=O)N[C@@H](CCCNC(=N)N)C(=O)N[C@@H](CCCCN)C(=O)N[C@@H](CCCCN)C(=O)N[C@@H](CCCCN)C(N)=O)[C@@H](C)O
B7: SEQ ID NO: 3 (peptide)
peptide: Ac-LEGREKVRAQI[Aib][Aib]EG[Nle]STWS[Aib]RKK-NH2
SMILES: CCCC[C@H](NC(=O)CNC(=O)[C@H](CCC(=O)O)NC(=O)C(C)(C)NC(=O)C(C)(C)NC(=O)[C@@H](NC(=O)[C@H](CCC(N)=O)NC(=O)[C@H](C)NC(=O)[C@H](CCCNC(=N)N)NC(=O)[C@@H](NC(=O)[C@H](CCCCN)NC(=O)[C@H](CCC(=O)O)NC(=O)[C@H](CCCNC(=N)N)NC(=O)CNC(=O)[C@H](CCC(=O)O)NC(=O)[C@H](CC(C)C)NC(C)=O)C(C)C)[C@@H](C)CC)C(=O)N[C@@H](CO)C(=O)N[C@H](C(=O)N[C@@H](Cc1c[nH]c2ccccc12)C(=O)N[C@@H](CO)C(=O)NC(C)(C)C(=O)N[C@@H](CCCNC(=N)N)C(=O)N[C@@H](CCCCN)C(=O)N[C@@H](CCCCN)C(N)=O)[C@@H](C)O
B8: SEQ ID NO: 21 (peptide)
peptide: Ac-LEGREKVRAQI[Aib][Aib]EG[Nle]STWS[Aib]RKK(Ac)-NH2
SMILES: CCCC[C@H](NC(=O)CNC(=O)[C@H](CCC(=O)O)NC(=O)C(C)(C)NC(=O)C(C)(C)NC(=O)[C@@H](NC(=O)[C@H](CCC(N)=O)NC(=O)[C@H](C)NC(=O)[C@H](CCCNC(=N)N)NC(=O)[C@@H](NC(=O)[C@H](CCCCN)NC(=O)[C@H](CCC(=O)O)NC(=O)[C@H](CCCNC(=N)N)NC(=O)CNC(=O)[C@H](CCC(=O)O)NC(=O)[C@H](CC(C)C)NC(C)=O)C(C)C)[C@@H](C)CC)C(=O)N[C@@H](CO)C(=O)N[C@H](C(=O)N[C@@H](Cc1c[nH]c2ccccc12)C(=O)N[C@@H](CO)C(=O)NC(C)(C)C(=O)N[C@@H](CCCNC(=N)N)C(=O)N[C@@H](CCCCN)C(=O)N[C@@H](CCCCNC(C)=O)C(N)=O)[C@@H](C)O
B9: SEQ ID NO: 24 (peptide)
peptide: Ac-LEGREKVRAK(Ac)I[Aib][Aib]EG[Nle]STWS[Aib]RKK-NH2
SMILES: CCCC[C@H](NC(=O)CNC(=O)[C@H](CCC(=O)O)NC(=O)C(C)(C)NC(=O)C(C)(C)NC(=O)[C@@H](NC(=O)[C@H](CCCCNC(C)=O)NC(=O)[C@H](C)NC(=O)[C@H](CCCNC(=N)N)NC(=O)[C@@H](NC(=O)[C@H](CCCCN)NC(=O)[C@H](CCC(=O)O)NC(=O)[C@H](CCCNC(=N)N)NC(=O)CNC(=O)[C@H](CCC(=O)O)NC(=O)[C@H](CC(C)C)NC(C)=O)C(C)C)[C@@H](C)CC)C(=O)N[C@@H](CO)C(=O)N[C@H](C(=O)N[C@@H](Cc1c[nH]c2ccccc12)C(=O)N[C@@H](CO)C(=O)NC(C)(C)C(=O)N[C@@H](CCCNC(=N)N)C(=O)N[C@@H](CCCCN)C(=O)N[C@@H](CCCCN)C(N)=O)[C@@H](C)O

What follows are binders tested against T1, RXFP1 receptor (assay: cell-based or functional assay).

Binder	cAMP assay in OVCAR 5 cells EC50	cAMP assay in OVCAR 5 cells Emax
B1	128 nM	95%
B2	57.1 nM	102%
B3	14.5 nM	100%
B4	9.5 nM	95%
B5	1.8 nM	97%
B6	4.2 nM	100%
B7	12 nM	97%
B8	32.8 nM	96%
B9	47.9 nM	92%
